Reference: patent US20240400654A1
Values joined by “and” are separate entries in the source; they are usually repeats but may differ in a detail not shown here. Equal values may be shown once.

B1: KB001 mouse Fab VH A62Q (Fab, V domains shown)
VH: EVQLKQSGPGLVAPSQSLSITCTVSGFSLSIYSVHWVRQPPGKGLEWLGMIWGGGSSDYNSQLKSRLSISKDNSKSQVFLKMNSLQTDDTAMYYCARNGNFYAMDYWGQGTSVTVSS
VL: QIVLTQSPAIMSASLGERVTMTCTASSSVSSSFLHWYQQKPGSSPQLWIYSTSNLASGVPARFSGSGSGTSYSLTISSMEAEDAATYYCHQYHHSPYIYTFGGGTKLEIK
B2: KB001 mouse Fab VH A62F (Fab, V domains shown)
VH: EVQLKQSGPGLVAPSQSLSITCTVSGFSLSIYSVHWVRQPPGKGLEWLGMIWGGGSSDYNSFLKSRLSISKDNSKSQVFLKMNSLQTDDTAMYYCARNGNFYAMDYWGQGTSVTVSS
VL: QIVLTQSPAIMSASLGERVTMTCTASSSVSSSFLHWYQQKPGSSPQLWIYSTSNLASGVPARFSGSGSGTSYSLTISSMEAEDAATYYCHQYHHSPYIYTFGGGTKLEIK
B3: KB001 mouse Fab VH A62R (Fab, V domains shown)
VH: EVQLKQSGPGLVAPSQSLSITCTVSGFSLSIYSVHWVRQPPGKGLEWLGMIWGGGSSDYNSRLKSRLSISKDNSKSQVFLKMNSLQTDDTAMYYCARNGNFYAMDYWGQGTSVTVSS
VL: QIVLTQSPAIMSASLGERVTMTCTASSSVSSSFLHWYQQKPGSSPQLWIYSTSNLASGVPARFSGSGSGTSYSLTISSMEAEDAATYYCHQYHHSPYIYTFGGGTKLEIK
B4: KB001 mouse Fab VH K64Y (Fab, V domains shown)
VH: EVQLKQSGPGLVAPSQSLSITCTVSGFSLSIYSVHWVRQPPGKGLEWLGMIWGGGSSDYNSALYSRLSISKDNSKSQVFLKMNSLQTDDTAMYYCARNGNFYAMDYWGQGTSVTVSS
VL: QIVLTQSPAIMSASLGERVTMTCTASSSVSSSFLHWYQQKPGSSPQLWIYSTSNLASGVPARFSGSGSGTSYSLTISSMEAEDAATYYCHQYHHSPYIYTFGGGTKLEIK
B5: KB001 mouse Fab VH A62E (Fab, V domains shown)
VH: EVQLKQSGPGLVAPSQSLSITCTVSGFSLSIYSVHWVRQPPGKGLEWLGMIWGGGSSDYNSELKSRLSISKDNSKSQVFLKMNSLQTDDTAMYYCARNGNFYAMDYWGQGTSVTVSS
VL: QIVLTQSPAIMSASLGERVTMTCTASSSVSSSFLHWYQQKPGSSPQLWIYSTSNLASGVPARFSGSGSGTSYSLTISSMEAEDAATYYCHQYHHSPYIYTFGGGTKLEIK
B6: KB001 mouse Fab VH A62V (Fab, V domains shown)
VH: EVQLKQSGPGLVAPSQSLSITCTVSGFSLSIYSVHWVRQPPGKGLEWLGMIWGGGSSDYNSVLKSRLSISKDNSKSQVFLKMNSLQTDDTAMYYCARNGNFYAMDYWGQGTSVTVSS
VL: QIVLTQSPAIMSASLGERVTMTCTASSSVSSSFLHWYQQKPGSSPQLWIYSTSNLASGVPARFSGSGSGTSYSLTISSMEAEDAATYYCHQYHHSPYIYTFGGGTKLEIK
B7: KB001 mouse Fab VH L63M (Fab, V domains shown)
VH: EVQLKQSGPGLVAPSQSLSITCTVSGFSLSIYSVHWVRQPPGKGLEWLGMIWGGGSSDYNSAMKSRLSISKDNSKSQVFLKMNSLQTDDTAMYYCARNGNFYAMDYWGQGTSVTVSS
VL: QIVLTQSPAIMSASLGERVTMTCTASSSVSSSFLHWYQQKPGSSPQLWIYSTSNLASGVPARFSGSGSGTSYSLTISSMEAEDAATYYCHQYHHSPYIYTFGGGTKLEIK
B8: KB001 mouse Fab VH K64V (Fab, V domains shown)
VH: EVQLKQSGPGLVAPSQSLSITCTVSGFSLSIYSVHWVRQPPGKGLEWLGMIWGGGSSDYNSALVSRLSISKDNSKSQVFLKMNSLQTDDTAMYYCARNGNFYAMDYWGQGTSVTVSS
VL: QIVLTQSPAIMSASLGERVTMTCTASSSVSSSFLHWYQQKPGSSPQLWIYSTSNLASGVPARFSGSGSGTSYSLTISSMEAEDAATYYCHQYHHSPYIYTFGGGTKLEIK
B9: KB001 mouse Fab VH A62I (Fab, V domains shown)
VH: EVQLKQSGPGLVAPSQSLSITCTVSGFSLSIYSVHWVRQPPGKGLEWLGMIWGGGSSDYNSILKSRLSISKDNSKSQVFLKMNSLQTDDTAMYYCARNGNFYAMDYWGQGTSVTVSS
VL: QIVLTQSPAIMSASLGERVTMTCTASSSVSSSFLHWYQQKPGSSPQLWIYSTSNLASGVPARFSGSGSGTSYSLTISSMEAEDAATYYCHQYHHSPYIYTFGGGTKLEIK
B10: KB001 mouse Fab VH K64M (Fab, V domains shown)
VH: EVQLKQSGPGLVAPSQSLSITCTVSGFSLSIYSVHWVRQPPGKGLEWLGMIWGGGSSDYNSALMSRLSISKDNSKSQVFLKMNSLQTDDTAMYYCARNGNFYAMDYWGQGTSVTVSS
VL: QIVLTQSPAIMSASLGERVTMTCTASSSVSSSFLHWYQQKPGSSPQLWIYSTSNLASGVPARFSGSGSGTSYSLTISSMEAEDAATYYCHQYHHSPYIYTFGGGTKLEIK
B11: KB001 mouse Fab VH L63H (Fab, V domains shown)
VH: EVQLKQSGPGLVAPSQSLSITCTVSGFSLSIYSVHWVRQPPGKGLEWLGMIWGGGSSDYNSAHKSRLSISKDNSKSQVFLKMNSLQTDDTAMYYCARNGNFYAMDYWGQGTSVTVSS
VL: QIVLTQSPAIMSASLGERVTMTCTASSSVSSSFLHWYQQKPGSSPQLWIYSTSNLASGVPARFSGSGSGTSYSLTISSMEAEDAATYYCHQYHHSPYIYTFGGGTKLEIK
B12: KB001 mouse Fab VH K64H (Fab, V domains shown)
VH: EVQLKQSGPGLVAPSQSLSITCTVSGFSLSIYSVHWVRQPPGKGLEWLGMIWGGGSSDYNSALHSRLSISKDNSKSQVFLKMNSLQTDDTAMYYCARNGNFYAMDYWGQGTSVTVSS
VL: QIVLTQSPAIMSASLGERVTMTCTASSSVSSSFLHWYQQKPGSSPQLWIYSTSNLASGVPARFSGSGSGTSYSLTISSMEAEDAATYYCHQYHHSPYIYTFGGGTKLEIK
B13: KB001 mouse Fab VH L63V (Fab, V domains shown)
VH: EVQLKQSGPGLVAPSQSLSITCTVSGFSLSIYSVHWVRQPPGKGLEWLGMIWGGGSSDYNSAVKSRLSISKDNSKSQVFLKMNSLQTDDTAMYYCARNGNFYAMDYWGQGTSVTVSS
VL: QIVLTQSPAIMSASLGERVTMTCTASSSVSSSFLHWYQQKPGSSPQLWIYSTSNLASGVPARFSGSGSGTSYSLTISSMEAEDAATYYCHQYHHSPYIYTFGGGTKLEIK
B14: KB001 mouse Fab VH K64G (Fab, V domains shown)
VH: EVQLKQSGPGLVAPSQSLSITCTVSGFSLSIYSVHWVRQPPGKGLEWLGMIWGGGSSDYNSALGSRLSISKDNSKSQVFLKMNSLQTDDTAMYYCARNGNFYAMDYWGQGTSVTVSS
VL: QIVLTQSPAIMSASLGERVTMTCTASSSVSSSFLHWYQQKPGSSPQLWIYSTSNLASGVPARFSGSGSGTSYSLTISSMEAEDAATYYCHQYHHSPYIYTFGGGTKLEIK
B15: KB001 mouse Fab VH A62L (Fab, V domains shown)
VH: EVQLKQSGPGLVAPSQSLSITCTVSGFSLSIYSVHWVRQPPGKGLEWLGMIWGGGSSDYNSLLKSRLSISKDNSKSQVFLKMNSLQTDDTAMYYCARNGNFYAMDYWGQGTSVTVSS
VL: QIVLTQSPAIMSASLGERVTMTCTASSSVSSSFLHWYQQKPGSSPQLWIYSTSNLASGVPARFSGSGSGTSYSLTISSMEAEDAATYYCHQYHHSPYIYTFGGGTKLEIK
B16: KB001 mouse Fab VH L63Y (Fab, V domains shown)
VH: EVQLKQSGPGLVAPSQSLSITCTVSGFSLSIYSVHWVRQPPGKGLEWLGMIWGGGSSDYNSAYKSRLSISKDNSKSQVFLKMNSLQTDDTAMYYCARNGNFYAMDYWGQGTSVTVSS
VL: QIVLTQSPAIMSASLGERVTMTCTASSSVSSSFLHWYQQKPGSSPQLWIYSTSNLASGVPARFSGSGSGTSYSLTISSMEAEDAATYYCHQYHHSPYIYTFGGGTKLEIK
B17: KB001 mouse Fab VH A62D (Fab, V domains shown)
VH: EVQLKQSGPGLVAPSQSLSITCTVSGFSLSIYSVHWVRQPPGKGLEWLGMIWGGGSSDYNSDLKSRLSISKDNSKSQVFLKMNSLQTDDTAMYYCARNGNFYAMDYWGQGTSVTVSS
VL: QIVLTQSPAIMSASLGERVTMTCTASSSVSSSFLHWYQQKPGSSPQLWIYSTSNLASGVPARFSGSGSGTSYSLTISSMEAEDAATYYCHQYHHSPYIYTFGGGTKLEIK
B18: KB001 mouse Fab VH L63F (Fab, V domains shown)
VH: EVQLKQSGPGLVAPSQSLSITCTVSGFSLSIYSVHWVRQPPGKGLEWLGMIWGGGSSDYNSAFKSRLSISKDNSKSQVFLKMNSLQTDDTAMYYCARNGNFYAMDYWGQGTSVTVSS
VL: QIVLTQSPAIMSASLGERVTMTCTASSSVSSSFLHWYQQKPGSSPQLWIYSTSNLASGVPARFSGSGSGTSYSLTISSMEAEDAATYYCHQYHHSPYIYTFGGGTKLEIK
B19: KB001 mouse Fab VH K64S (Fab, V domains shown)
VH: EVQLKQSGPGLVAPSQSLSITCTVSGFSLSIYSVHWVRQPPGKGLEWLGMIWGGGSSDYNSALSSRLSISKDNSKSQVFLKMNSLQTDDTAMYYCARNGNFYAMDYWGQGTSVTVSS
VL: QIVLTQSPAIMSASLGERVTMTCTASSSVSSSFLHWYQQKPGSSPQLWIYSTSNLASGVPARFSGSGSGTSYSLTISSMEAEDAATYYCHQYHHSPYIYTFGGGTKLEIK
B20: KB001 mouse Fab VH A62H (Fab, V domains shown)
VH: EVQLKQSGPGLVAPSQSLSITCTVSGFSLSIYSVHWVRQPPGKGLEWLGMIWGGGSSDYNSHLKSRLSISKDNSKSQVFLKMNSLQTDDTAMYYCARNGNFYAMDYWGQGTSVTVSS
VL: QIVLTQSPAIMSASLGERVTMTCTASSSVSSSFLHWYQQKPGSSPQLWIYSTSNLASGVPARFSGSGSGTSYSLTISSMEAEDAATYYCHQYHHSPYIYTFGGGTKLEIK
B21: KB001 mouse Fab VH K64I (Fab, V domains shown)
VH: EVQLKQSGPGLVAPSQSLSITCTVSGFSLSIYSVHWVRQPPGKGLEWLGMIWGGGSSDYNSALISRLSISKDNSKSQVFLKMNSLQTDDTAMYYCARNGNFYAMDYWGQGTSVTVSS
VL: QIVLTQSPAIMSASLGERVTMTCTASSSVSSSFLHWYQQKPGSSPQLWIYSTSNLASGVPARFSGSGSGTSYSLTISSMEAEDAATYYCHQYHHSPYIYTFGGGTKLEIK

The binders below were run against HRgpA-6H (Porphyromonas gingivalis) (UniProt P28784) (assay: ELISA, coated HRgpA-6H).
UniProt P28784, sequence (P28784 228-860 limits assumed): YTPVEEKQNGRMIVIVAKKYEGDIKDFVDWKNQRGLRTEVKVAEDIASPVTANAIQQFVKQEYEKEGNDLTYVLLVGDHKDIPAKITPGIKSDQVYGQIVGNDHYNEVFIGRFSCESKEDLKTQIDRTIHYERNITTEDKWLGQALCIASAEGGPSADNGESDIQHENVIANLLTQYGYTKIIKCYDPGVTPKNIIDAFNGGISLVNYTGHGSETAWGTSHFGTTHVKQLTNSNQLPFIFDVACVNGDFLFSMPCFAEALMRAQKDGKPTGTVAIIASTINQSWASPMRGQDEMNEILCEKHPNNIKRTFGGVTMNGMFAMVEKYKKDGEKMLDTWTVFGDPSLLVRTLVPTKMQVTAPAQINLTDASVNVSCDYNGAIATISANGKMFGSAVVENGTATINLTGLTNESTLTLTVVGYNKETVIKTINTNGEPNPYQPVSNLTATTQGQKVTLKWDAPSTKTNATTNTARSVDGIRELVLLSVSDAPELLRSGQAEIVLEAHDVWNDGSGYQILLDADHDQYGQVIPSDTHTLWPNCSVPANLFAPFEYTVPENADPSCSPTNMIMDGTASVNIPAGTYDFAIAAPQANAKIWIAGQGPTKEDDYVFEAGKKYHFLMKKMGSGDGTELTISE
For B1, the OD450 nm was 0.737 and 0.869 and the Ratio OD(Variant)/OD(WT) was 0.843 and 0.994. B2 was tested, and the OD450 nm was 0.843 and 0.733 and the Ratio OD(Variant)/OD(WT) was 0.965 and 0.839. B3 was tested, and the OD450 nm was 0.733 and 0.847 and 0.809 and the Ratio OD(Variant)/OD(WT) was 0.839 and 0.969 and 0.926. Work on B4 yielded an OD450 nm of 0.763 and a Ratio OD(Variant)/OD(WT) of 0.923. B5 showed an OD450 nm of 0.854 and a Ratio OD(Variant)/OD(WT) of 0.977. B6 was tested, and the OD450 nm was 0.742 and 0.757 and the Ratio OD(Variant)/OD(WT) was 0.849 and 0.866. B7 was tested, and the OD450 nm was 0.8 and the Ratio OD(Variant)/OD(WT) was 0.915. For B8, the OD450 nm was 0.715 and 0.714 and the Ratio OD(Variant)/OD(WT) was 0.865 and 0.863. With B9 the OD450 nm was 0.702 and 0.808 and the Ratio OD(Variant)/OD(WT) was 0.803 and 0.924. In the case of B10, the OD450 nm is reported as 0.799 and 0.757 and 0.78 and the Ratio OD(Variant)/OD(WT) is reported as 0.966 and 0.915 and 0.943. With B11 the OD450 nm was 0.818 and 0.843 and 0.822 and the Ratio OD(Variant)/OD(WT) was 0.936 and 0.965 and 0.941. For B12, the OD450 nm was 0.752 and the Ratio OD(Variant)/OD(WT) was 0.909. For B13, the OD450 nm was 0.784 and 0.77 and 0.778 and the Ratio OD(Variant)/OD(WT) was 0.897 and 0.881 and 0.89. B14 gave an OD450 nm of 0.806 and a Ratio OD(Variant)/OD(WT) of 0.975. B15 was tested, and the OD450 nm was 0.812 and the Ratio OD(Variant)/OD(WT) was 0.929. In the case of B16, the OD450 nm is reported as 0.836 and 0.846 and 0.801 and the Ratio OD(Variant)/OD(WT) is reported as 0.957 and 0.968 and 0.916. For B17, the OD450 nm was 0.853 and 0.851 and the Ratio OD(Variant)/OD(WT) was 0.976 and 0.974. Work on B18 yielded an OD450 nm of 0.743 and a Ratio OD(Variant)/OD(WT) of 0.85. B19 showed an OD450 nm of 0.808 and a Ratio OD(Variant)/OD(WT) of 0.977. In the case of B20, the OD450 nm is reported as 0.819 and 0.834 and 0.844 and the Ratio OD(Variant)/OD(WT) is reported as 0.937 and 0.954 and 0.966. In the case of B21, the OD450 nm is reported as 0.743 and 0.756 and 0.715 and the Ratio OD(Variant)/OD(WT) is reported as 0.898 and 0.914 and 0.865.
